According to patent US20230203172A1:

Target: human IL-4R alpha on cells (TF-1 cells; human peripheral blood mononuclear cells) (human) (UniProt P24394)
Assay: cell-based or functional assay

Dupilumab (antibody)
IC50 (ng/ml), inhibition of IL-4-induced TF-1 cell proliferation: 138 ng/mL
